One may read the Kd as the free concentration of one partner at which half of the binding sites on the other are occupied at equilibrium, for simple one-to-one binding. Read a low Kd as tighter binding. One may read the koff as the rate constant with which the complex falls apart.

The experiment deals with FcRn (human) (UniProt P55899). Kind of experiment: Biacore; pH 6.0. For orientation: SPR reads the build-up and loss of mass on a sensor chip optically.
Chain of FcRn (human) (P55899 24-297, chain 1 of 2): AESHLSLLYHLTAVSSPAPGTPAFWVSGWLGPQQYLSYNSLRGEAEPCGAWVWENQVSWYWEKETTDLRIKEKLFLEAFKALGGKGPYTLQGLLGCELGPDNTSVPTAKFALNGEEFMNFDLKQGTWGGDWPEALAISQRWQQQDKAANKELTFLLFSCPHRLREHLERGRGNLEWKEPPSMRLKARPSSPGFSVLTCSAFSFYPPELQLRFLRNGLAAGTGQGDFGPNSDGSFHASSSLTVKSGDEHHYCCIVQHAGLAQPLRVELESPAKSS
Chain of FcRn (human) (P61769 21-119, chain 2 of 2, further chain): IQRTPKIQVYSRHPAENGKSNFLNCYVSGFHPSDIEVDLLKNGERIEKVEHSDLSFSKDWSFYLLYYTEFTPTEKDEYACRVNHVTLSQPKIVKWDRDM

Take IgG1 N434S: the Ka was 1.71e+06 M⁻¹ and the Kd is 583 nM. For IgG1 Y436V the same measures were 1.46e+06 M⁻¹ and 683 nM. In the same order, the values of IgG1 Y436W are 1.42e+06 M⁻¹ and 706 nM.

With IgG1/2 M428L/N434S, the Ka was determined as 5.92e+06 M⁻¹, the dissociation constant (Kd) is 169 nM and the koff turned out to be 0.0416 s⁻¹. IgG1/2 N434S/A378G yielded an off-rate constant (koff) of 0.179 s⁻¹. Take IgG1/2 N434S/A378S: the off-rate (koff) came out at 0.0902 s⁻¹. This koff lies about 2-fold lower than the previous one. Same read-out and setting: the result for IgG1/2 N434S/D249G reads 0.142 s⁻¹; that for IgG1/2 N434S/D312K, 0.221 s⁻¹; that for IgG1/2 N434S/D312R, 0.231 s⁻¹. On the same count and under the same terms, the figure for IgG1/2 N434S/D312Y is 0.163 s⁻¹; for IgG1/2 N434S/H285D it is 0.117 s⁻¹; for IgG1/2 N434S/H433G it is 0.121 s⁻¹.

IgG1/2 N434S/I253M came in with a koff of 0.818 s⁻¹. IgG1/2 N434S/I253V: the koff turned out to be 0.98 s⁻¹. Take IgG1/2 N434S/K248Y: the koff came to 0.176 s⁻¹. This koff is about 5.6-fold lower than that of the substance before. The substance IgG1/2 N434S/K288F yielded a dissociation rate constant (koff) of 0.158 s⁻¹. As for IgG1/2 N434S/K288H, the koff was 0.121 s⁻¹. This koff and that of the substance before are within 1.5-fold of each other. Still for that read-out and setting: the figure for IgG1/2 N434S/K288I is 0.17 s⁻¹; for IgG1/2 N434S/K288L it is 0.164 s⁻¹; for IgG1/2 N434S/K288N it is 0.147 s⁻¹. Same read-out and setting: the result for IgG1/2 N434S/K288Q reads 0.162 s⁻¹; that for IgG1/2 N434S/K288W, 0.154 s⁻¹; that for IgG1/2 N434S/K288Y, 0.162 s⁻¹.

IgG1/2 N434S/K338H: the koff turned out to be 0.142 s⁻¹. The koff values of the last two substances are within 1.5-fold of each other.

Take IgG1/2 N434S/K338R: the koff is 0.141 s⁻¹. The substance IgG1/2 N434S/M428I registered a koff of 0.117 s⁻¹.

For the substance IgG1/2 N434S/M428V, the off-rate constant (koff) was 0.153 s⁻¹. IgG1/2 N434S/N286D displayed a Ka of 2.36e+06 M⁻¹, an equilibrium dissociation constant (Kd) of 423 nM and an off-rate (koff) of 0.0991 s⁻¹. In turn, IgG1/2 N434S/N286F came in with a koff of 0.12 s⁻¹. Same read-out and setting: the figure for IgG1/2 N434S/N286G is 0.124 s⁻¹; for IgG1/2 N434S/N286H it is 0.149 s⁻¹.

For IgG1/2 N434S/N286I, the koff was determined as 0.148 s⁻¹. The koff values of the last two substances are within 1.5-fold of each other.

Take IgG1/2 N434S/N286K: the off-rate constant (koff) came to 0.272 s⁻¹.

Take IgG1/2 N434S/N286L: the Ka stood at 2.69e+06 M⁻¹, the equilibrium dissociation constant (Kd) was determined as 372 nM and the koff amounted to 0.094 s⁻¹.

Regarding IgG1/2 N434S/N286P, the off-rate constant (koff) is 0.122 s⁻¹. The substance IgG1/2 N434S/N286R returned a Ka of 2.5e+06 M⁻¹, a dissociation constant Kd of 400 nM and a koff of 0.0988 s⁻¹. Turning to IgG1/2 N434S/N286V, the koff is 0.143 s⁻¹. The same measure, in the same setting: the figure for IgG1/2 N434S/N286Y is 0.103 s⁻¹; for IgG1/2 N434S/Q438D it is 0.104 s⁻¹; for IgG1/2 N434S/Q438F it is 0.122 s⁻¹. As for IgG1/2 N434S/Q438G, the koff was 0.146 s⁻¹. The koff values of the last two substances are within 1.5-fold of each other. Substance IgG1/2 N434S/Q438H returned a koff of 0.164 s⁻¹. This koff and that of the substance before are within 1.5-fold of each other. On to IgG1/2 N434S/Q438I, for which the off-rate constant (koff) worked out at 0.104 s⁻¹. Same read-out and setting: the result for IgG1/2 N434S/Q438N reads 0.113 s⁻¹; that for IgG1/2 N434S/Q438S, 0.106 s⁻¹; that for IgG1/2 N434S/Q438W, 0.119 s⁻¹. The same measure, in the same setting: the result for IgG1/2 N434S/Q438Y reads 0.139 s⁻¹; that for IgG1/2 N434S/R255E, 0.213 s⁻¹. As to IgG1/2 N434S/R255F, the off-rate (koff) was determined as 0.136 s⁻¹.

Take IgG1/2 N434S/R255G: the off-rate constant (koff) came to 0.189 s⁻¹. As to IgG1/2 N434S/R255H, the koff was 0.189 s⁻¹. IgG1/2 N434S/R255I came in with a Ka of 2.57e+06 M⁻¹, a dissociation constant Kd of 390 nM and an off-rate constant (koff) of 0.0943 s⁻¹. As to IgG1/2 N434S/R255L, the koff turned out to be 0.107 s⁻¹. The same measure, in the same setting: the result for IgG1/2 N434S/R255P reads 0.0965 s⁻¹; that for IgG1/2 N434S/R255Q, 0.186 s⁻¹; that for IgG1/2 N434S/R255S, 0.169 s⁻¹.

For the substance IgG1/2 N434S/R255W, the koff was found to be 0.107 s⁻¹.

In turn, IgG1/2 N434S/S426F showed an off-rate (koff) of 0.285 s⁻¹. Same read-out and setting: the result for IgG1/2 N434S/S426H reads 0.134 s⁻¹. In the case of IgG1/2 N434S/S426I, the Ka amounted to 2.23e+06 M⁻¹, the Kd was 448 nM and the koff was 0.0867 s⁻¹. IgG1/2 N434S/S426L: the koff turned out to be 0.173 s⁻¹. IgG1/2 N434S/S426M showed a koff of 0.149 s⁻¹.

IgG1/2 N434S/S426W registered a dissociation rate constant (koff) of 0.275 s⁻¹. Compared with the last substance, the koff is about 1.8-fold higher. On the same count and under the same terms, the result for IgG1/2 N434S/S426Y reads 0.22 s⁻¹; that for IgG1/2 N434S/T307D, 0.0749 s⁻¹.

IgG1/2 N434S/T307E yielded a koff of 0.0702 s⁻¹. On to IgG1/2 N434S/T307F, for which the koff worked out at 0.087 s⁻¹. The koff values of the last two substances are within 1.5-fold of each other.

Substance IgG1/2 N434S/T307G yielded an off-rate (koff) of 0.0818 s⁻¹. As to IgG1/2 N434S/T307H, the dissociation rate constant (koff) is 0.107 s⁻¹.

In the case of IgG1/2 N434S/T307I, the off-rate constant (koff) turned out to be 0.111 s⁻¹.

With IgG1/2 N434S/T307K, the dissociation rate constant (koff) was 0.211 s⁻¹.

IgG1/2 N434S/T307L gave a koff of 0.137 s⁻¹. On the same count and under the same terms, the figure for IgG1/2 N434S/T307M is 0.0653 s⁻¹; for IgG1/2 N434S/T307N it is 0.125 s⁻¹; for IgG1/2 N434S/T307P it is 0.0702 s⁻¹.

Substance IgG1/2 N434S/T307R had a koff of 0.193 s⁻¹. On the same count and under the same terms, the result for IgG1/2 N434S/T307V reads 0.092 s⁻¹.

Regarding IgG1/2 N434S/T307W, the koff was 0.0627 s⁻¹. Still for that read-out and setting: the result for IgG1/2 N434S/T307Y reads 0.0847 s⁻¹; that for IgG1/2 N434S/V284D, 0.116 s⁻¹. With IgG1/2 N434S/V284E, the Ka stood at 2.75e+06 M⁻¹, the Kd came out at 363 nM and the koff is 0.0981 s⁻¹.

IgG1/2 N434S/V309D registered a koff of 0.359 s⁻¹. The same measure, in the same setting: the result for IgG1/2 N434S/V309E reads 0.138 s⁻¹; that for IgG1/2 N434S/V309F, 0.168 s⁻¹.

Regarding IgG1/2 N434S/V309H, the koff stood at 0.364 s⁻¹.

As for IgG1/2 N434S/V309I, the off-rate constant (koff) came out at 0.13 s⁻¹.

IgG1/2 N434S/V309K gave a koff of 0.617 s⁻¹. For the substance IgG1/2 N434S/V309L, the koff is 0.137 s⁻¹. Same read-out and setting: the result for IgG1/2 N434S/V309P reads 0.16 s⁻¹; that for IgG1/2 N434S/V309Q, 0.227 s⁻¹.

Consider IgG1/2 N434S/V309R, for which the koff worked out at 0.329 s⁻¹. The koff values of the last two substances are within 1.5-fold of each other.

In the case of IgG1/2 N434S/V309W, the Ka turned out to be 3.07e+06 M⁻¹, the Kd was found to be 326 nM and the off-rate (koff) is 0.0832 s⁻¹. Turning to IgG1/2 N434S/V309Y, the off-rate constant (koff) is 0.129 s⁻¹.

For IgG1/2 N434S/Y436F, the off-rate constant (koff) was determined as 0.118 s⁻¹. As to IgG1/2 N434S/Y436H, the Ka is 532000 M⁻¹ and the Kd turned out to be 1880 nM. In the case of IgG1/2 N434S/Y436I, the Ka amounted to 5.14e+06 M⁻¹ and the equilibrium dissociation constant (Kd) came out at 194 nM.

As for IgG1/2 N434S/Y436K, the Ka is 723000 M⁻¹ and the Kd was found to be 1380 nM. IgG1/2 N434S/Y436L: the Ka is 1.65e+06 M⁻¹ and the Kd was found to be 605 nM. For IgG1/2 N434S/Y436V the same measures were 3.56e+06 M⁻¹ and 281 nM. For IgG1/2 N434S/Y436W the same measures were 2.91e+06 M⁻¹ and 344 nM. In the same order, the values of IgG1/2 Q311L/N434S are 4.34e+06 M⁻¹ and 231 nM. IgG1/2 Q311M/N434S gave a Ka of 4.64e+06 M⁻¹ and a Kd of 215 nM. IgG1/2 Q311V/N434S returned a Ka of 5.77e+06 M⁻¹ and a dissociation constant (Kd) of 173 nM. IgG1/2 WT gave a Ka of 131000 M⁻¹ and a Kd of 7660 nM. The substance IgG1/2 Y436I displayed a Ka of 1.43e+06 M⁻¹ and a Kd of 699 nM. As to IgG1/2 Y436W, the Ka came out at 3.15e+06 M⁻¹ and the Kd was 317 nM. For IgG1/2_WT, the equilibrium dissociation constant (Kd) came out at 1180 nM.

(Values after US20120128663A1.)
